Reference: paper PMC10008561, “Molecular mechanism of biased signaling at the kappa opioid receptor” (Nature Communications, 2023)

Target: T1, BRIL-KOR crystallization construct (human kappa-opioid receptor, residues 1-53 replaced by BRIL, C-terminal … (Homo sapiens, I135L | S324C))
T1 chain: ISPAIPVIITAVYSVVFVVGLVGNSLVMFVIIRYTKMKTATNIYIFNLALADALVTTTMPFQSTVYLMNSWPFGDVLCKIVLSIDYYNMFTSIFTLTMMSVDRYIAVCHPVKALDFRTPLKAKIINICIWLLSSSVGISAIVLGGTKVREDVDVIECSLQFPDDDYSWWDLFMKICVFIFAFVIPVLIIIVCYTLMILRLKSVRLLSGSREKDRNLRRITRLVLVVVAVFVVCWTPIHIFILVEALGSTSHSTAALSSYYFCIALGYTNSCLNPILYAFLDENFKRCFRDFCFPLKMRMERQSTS
Experiment: cell-based or functional assay

- increase of the binding affinity of nalfurafine in radioligand competition binding on KOR membranes in the presence of Nb39: 40 fold
B1: Nb39 (active-state stabilizing nanobody) (VHH)
VHH: QVQLVESGGGLVRPGGSLRLSCVDSERTSYPMGWFRRAPGKEREFVASITWSGIDPTYADSVADRFTTSRDVANNTLYLQMNSLKHEDTAVYYCAARAPVGQSSSPYDYDYWGQGTQVTVS
